The text below walks through data of patent US10246503B2, “Method of improving the pharmacokinetic profile of a therapeutic polypeptide and the use thereof” (BEIJING ANXINHUAIDE BIOTECH. CO., LTD, priority 2012, dated 2019).

Data set [1] is described as follows: pharmacokinetics in SD rats, sandwich ELISA (Example 15). The settings on record: intraperitoneal, 5 nmol/kg. In kind it is in vivo, SD (Sprague-Dawley) rats. On the procedure:
To evaluate the pharmacokinetics profiles for the GLP-1 containing fusion proteins generated using the method of the invention, we purified the recombinant fusion proteins of GLP-1-Fn8-COL18NC1, GLP1(A8G/G22E/R36G)-Fn8-p246-COL18NC1 and GLP1(A8G/G22E/R36G)-Fn8-p285-COL18NC1 in PBS buffer, pH 7.2. These fusion proteins were administered into SD (Sprague-Dawley) rats by intraperitoneal injections at the dose of 5 nmol/kg for animals, respectively. Blood samples were taken at various time points after injections such as 0-min, 30-min, 1-hour, 2-hour, 4-hour, 6-hour, 8-hour, 24-hour, 48-hour, 3-day, 4-day, 5-day, 6-day and 7-day. The serum samples were centrifuged and kept at −80° C. freezer.
(§1) The GLP-1 concentrations within the samples were examined by use of the sandwich ELISA method. The rabbit polyclonal antibody against human Fibronectin at the concentration of 3 ug/ml (Ab299, Abcam company) was coated on ELISA plate for 1 hour at room temperature. Then the plate was washed by PBST buffer three times and the wells were blocked by PBS with 10% FBS for 1 hour at room temperature. The plate was washed three times before the serum samples containing GLP-1 fusion proteins were added. The serum samples could be diluted to 20-10000 folds before use. The ELISA plate was incubated with the serum samples at room temperature for 1 hour and then washed by PBST buffer five times. Then mouse monoclonal against human GLP-1 peptide antibody (sc57510, Santa Cruz Biotechnology) at the concentration of 1 ug/ml in PBST buffer was added to the wells. The plate was washed extensively after incubation of 1 hour at room temperature. The secondary antibody, […] HRP conjugated antibody (Beijing ZSGB-Bio company, ZB 5301), was added into the wells and the color was developed using TMB (3,3′,5,5′-tetramethylbenzidine, BD Biosciences, Cat 555214). The plate reader (Bio-Rad microplate reader Model 680) was utilized to obtain the OD450 readings. This method has been calibrated using purified proteins first.
The pharmacokinetics parameters were obtained by using the WinNonlin software (Table 5).

Data set [2] is described as follows: pharmacokinetics in cynomolgus monkeys, sandwich ELISA. In kind it is in vivo. Particulars: subcutaneous, 5 nmol/kg. On the procedure:
as §1
To further investigate the pharmacokinetics profiles for the GLP-1 containing fusion proteins generated using the method of the invention, the fusion protein GLP1(A8G/G22E/R36G)-Fn8-p246-COL18NC1 was administrated into the cynomolgus monkeys by subcutaneous injection. The fusion protein was administered on three cynomolgus monkeys at the dose of 5 nmol/kg. Blood samples were taken at various time points after injections such as 0-min, 2-hour, 4-hour, 6-hour, 8-hour, 24-hour, 48-hour, and daily until the 15th day. The serum samples were centrifuged and kept at −80° C. freezer. The concentrations of the fusion protein within the serum samples were examined by using the sandwich ELISA method described above. The pharmacokinetics profile of the fusion protein GLP1(A8G/G22E/R36G)-Fn8-p246-COL18NC1 in cynomolgus monkeys was shown in FIG. 8. The pharmacokinetics parameters were obtained by using the WinNonlin software (Table 5).
On the technique in general: An ELISA detects its analyte on a solid surface through an enzyme-linked reagent.

In data set [3] the test system is SD rats. The data set is described as follows: toxicity in SD rats. It is filed as in vivo. The source says:
The toxicity of GLP1(A8G/G22E/R36G)-Fn8-p246-COL18NC1 in SD rats was also examined.

The test system of the next data set is cynomolgus monkeys. Description: specific antibody against the fusion protein in monkey serum, ELISA. It is filed as in vivo. The settings on record: serum of three cynomolgus monkeys one month after dosing. The source says:
The serum samples of the cynomolgus monkeys receiving the fusion protein GLP1(A8G/G22E/R36G)-Fn8-p246-COL18NC1 were withdrawn one month after dosing to examine whether specific antibody against GLP1(A8G/G22E/R36G)-Fn8-p246-COL18NC1 has been generated.

Data set [4] deals with SD rats. The data set is described as follows: Intraperitoneal glucose tolerance test (IPGTT) in SD rats. It is filed as in vivo, SD (Sprague-Dawley) rats. On the procedure: In this figure, GLP1(A8G/G22E/R36G)-Fn8-p246-COL18NC1 is labeled as p246. In FIG. 9a, the rats were injected with saline, GLP1(A8G/G22E/R36G)-Fn8-p246-COL18NC1 at the dose of 10_nmol/kg and 20_nmol/kg, respectively. 8 hours after the administrations of the fusion protein (and control), the IPGTT experiments were conducted. The three curves indicated the glucose levels in the IPGTT for rats that received negative control (saline), GLP1(A8G/G22E/R36G)-Fn8-p246-COL18NC1 at the doses of 10_nmol/kg and 20_nmol/kg, respectively. In FIG. 9b, the rats were injected with saline, GLP1(A8G/G22E/R36G)-Fn8-p246-COL18NC1 at the dose of 20 nmol/kg. 32 hours and 102 hours after the administrations of the fusion protein (and the control), the IPGTT experiments were conducted. The three curves indicated the glucose levels in the IPGTT for rats that 32 hours and 102 hours after administration of negative control (saline), GLP1(A8G/G22E/R36G)-Fn8-p246-COL18NC1 respectively.
To evaluate the efficacy of GLP1(A8G/G22E/R36G)-Fn8-p246-COL18NC1 to reduce the glucose level in animal models, we performed the Intraperitoneal glucose tolerance test (IPGTT) in SD rats. The fusion protein GLP1(A8G/G22E/R36G)-Fn8-p246-COL18NC1 was administered on SD (Sprague-Dawley) rats by intraperitoneal injections at the dose of 10 nmol/kg and 20 nmol/kg for animals, respectively. Glucose was injected into the animals with the dose of 2 g/kg at 8 hours, 32 hours and 100 hours after the injection of the fusion protein GLP1(A8G/G22E/R36G)-Fn8-p246-COL18NC1. Blood samples were taken at various time points after injections such as 0-min, 10-min, 20-min, 30-min, 60-min and 120-min. The glucose levels within the blood samples were measured using a Accu-Chek Performa blood glucose meter (Roche) immediately. In FIG. 9a, the rats were injected with GLP1(A8G/G22E/R36G)-Fn8-p246-COL18NC1 at the dose of 10 nmol/kg and 20 nmol/kg about 8 hours before the IPGTT experiments were conducted. […] In FIG. 9b, about 32 hours and 100 hours after the rats were injected with GLP1(A8G/G22E/R36G)-Fn8-p246-COL18NC1 at the dose of 20 nmol/kg, the IPGTT experiments were conducted.

B1: GLP1(A8G/G22E/R36G)-Fn8-p246-COL18NC1: GLP-1 mutant, Fn8, pCloud p246, COL18NC1 fusion; SEQ ID NO: 16 (protein)
chain: HGEGTFTSDVSSYLEEQAAKEFIAWLVKGGGSGGGSGGGSGGGSGGGSGSGGAVPPPTDLRFTNIGPDTMRVTWAPPPSIDLTNFLVRYSPVKNEEDVAELSISPSDNAVVLTNLLPGTEYVVSVSSVYEQHESTPLRGRQKTGGGGSGGGSGSGSESGSGGGSTSSGTGSETESPGSGSESGSGPSSAGSGSGSESGSGSGSSGPGSTGGSGSESGSGPGSSGTGGTATGSGSESGSGPGSSGPGSTGSGSGSESGSGSGSSGTGSTGGSGSESGSGPGSPRPGSTGTGSGSESGSGPGSSERGSAGGSGSESGSGTSESSASGSTGGSGSESGSGSESGSGSGSESGSGPESPGSGGSGSESGSGTSGSTGSGSESGSGGGSGGGSGGGASSGVRLWATRQAMLGQVHEVPEGWLIFVAEQEELYVRVQNGFRKVQLEARTPLPRG
For the molecule B1, the AUCall was 301.2 µg·h/mL in data set [1] (Rats) and 1267.8 µg·h/mL in data set [2] (Monkey). The figures for the CL/F in data set [1] (Rats) and in data set [2] (Monkey) were 2.03 mL/h/kg and 0.48 mL/h/kg, respectively. The values for the Cmax in data set [1] (Rats) and in data set [2] (Monkey) were 5730 ng/mL and 8210 ng/mL, respectively. For the same molecule, the results for the T½ in data set [1] (Rats) and in data set [2] (Monkey) were 30.8 h and 67.3 h, respectively. In addition, the Vss was 0.09023 L/kg in data set [1] (Rats) and 0.0516 L/kg in data set [2] (Monkey). Further, the half life in data set [1] (SD rats) was 30.8 h; in data set [2] (cynomolgus monkeys), around 67 h. For the same molecule, the “unacceptable adverse effects such as significant weight loss and fever” value in the data set on SD rats [3] (repeated doses of 5 nmol/kg every three days for four weeks) and in the data set with SD rats [3] (single dose of 30 nmol/kg) was “did not induce unacceptable adverse effects” in each case. Besides, the “specific antibody against the fusion protein” value with cynomolgus monkeys is on record as “no specific antibody was induced”. Besides, the “glucose level in IPGTT” value is “can efficiently reduce the glucose level” in the data set on SD rats [4] (10 nmol/kg intraperitoneal, about 8 hours before IPGTT, glucose 2 g/kg); “can efficiently reduce the glucose level” in the data set on SD rats [4] (20 nmol/kg intraperitoneal, about 8 hours before IPGTT, glucose 2 g/kg); “can still reduce the glucose level significantly” in the data set on SD rats [4] (20 nmol/kg, 100 hours after the injection). For the same molecule, the “glucose-reducing activity in IPGTT” value in the data set on SD rats [4] (single dose 20 nmol/kg, IPGTT about 32 hours and 100 hours after injection) is “can maintain its glucose-reducing activity in vivo for an extended period of time”.

What is called CL/F is the apparent clearance, not corrected for the fraction that reaches the circulation. In general, Cmax refers to the highest concentration seen after dosing.
